Consider three substances from PMC10967716.

What all share (test): SEC
On the technique in general: Size exclusion chromatography separates by hydrodynamic size, large species first.

Assay [1] addresses α-Methylacyl-CoA racemase from Mycobacterium tuberculosis, D156A mutant (M. tuberculosis) (UniProt O06543).
Assay [2] has as its target α-Methylacyl-CoA racemase from Mycobacterium tuberculosis, E241A mutant (M. tuberculosis) (UniProt O06543).
For assay [3], the target named is α-Methylacyl-CoA racemase from Mycobacterium tuberculosis, H126A mutant (M. tuberculosis) (UniProt O06543).

For the substance “α-Methylacyl-CoA racemase from Mycobacterium tuberculosis, D156A mutant (from UniProt O06543 1-360) (enzyme)”, the stoichiometry N (in general, a count of units in the complex or per binding partner) in assay [1] came to 2.

In assay [2], “α-Methylacyl-CoA racemase from Mycobacterium tuberculosis, E241A mutant (from UniProt O06543 1-360) (enzyme)” registered a stoichiometry N of 2. On to “α-Methylacyl-CoA racemase from Mycobacterium tuberculosis, H126A mutant (from UniProt O06543 1-360) (enzyme)”, for which, in assay [3], the stoichiometry N was determined as 2.
